B1: DnaA regulatory inactivator Hda (Escherichia coli (strain K12)), P69931 (parent)
chain: MNTPAQLSLPLYLPDDETFASFWPGDNSSLLAALQNVLRQEHSGYIYLWAREGAGRSHLLHAACAELSQRGDAVGYVPLDKRTWFVPEVLDGMEHLSLVCIDNIECIAGDELWEMAIFDLYNRILESGKTRLLITGDRPPRQLNLGLPDLASRLDWGQIYKLQPLSDEDKLQALQLRARLRGFELPEDVGRFLLKRLDREMRTLFMTLDQLDRASITAQRKLTIPFVKEILKL

What was measured:
dpo3b_ecoli dnaN, P0A988 [1] = variants of: B1; conditions: with dpo3b_ecoli dnaN
dpo3b_ecoli dnaN, P0A988 [2] = variants of: B1; conditions: with dpo3b_ecoli dnaN; remark: listed apart in the source

Chain of dpo3b_ecoli dnaN, P0A988 (P0A988 whole entry): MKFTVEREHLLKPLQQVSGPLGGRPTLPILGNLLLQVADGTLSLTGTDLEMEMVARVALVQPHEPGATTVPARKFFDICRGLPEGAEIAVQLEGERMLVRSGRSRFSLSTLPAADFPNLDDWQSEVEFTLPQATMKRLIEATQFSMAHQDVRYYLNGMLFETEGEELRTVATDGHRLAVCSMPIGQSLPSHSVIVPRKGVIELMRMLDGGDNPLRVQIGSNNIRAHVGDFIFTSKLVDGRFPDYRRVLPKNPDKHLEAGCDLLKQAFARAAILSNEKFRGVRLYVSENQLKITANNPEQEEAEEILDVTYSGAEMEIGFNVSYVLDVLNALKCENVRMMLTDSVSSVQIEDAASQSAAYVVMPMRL

MNTPAQASAPLYLPDDETFASFWPGDNSSLLAALQNVLRQEHSGYIYLWAREGAGRSHLLHAACAELSQRGDAVGYVPLDKRTWFVPEVLDGMEHLSLVCIDNIECIAGDELWEMAIFDLYNRILESGKTRLLITGDRPPRQLNLGLPDLASRLDWGQIYKLQPLSDEDKLQALQLRARLRGFELPEDVGRFLLKRLDREMRTLFMTLDQLDRASITAQRKLTIPFVKEILKL [L7A;L9A]
effect of a mutation on the interaction (dpo3b_ecoli dnaN, P0A988 [1]): decreasing interaction | effect of a mutation on the interaction (dpo3b_ecoli dnaN, P0A988 [2]): disrupting interaction

MNTPAQLSAALYLPDDETFASFWPGDNSSLLAALQNVLRQEHSGYIYLWAREGAGRSHLLHAACAELSQRGDAVGYVPLDKRTWFVPEVLDGMEHLSLVCIDNIECIAGDELWEMAIFDLYNRILESGKTRLLITGDRPPRQLNLGLPDLASRLDWGQIYKLQPLSDEDKLQALQLRARLRGFELPEDVGRFLLKRLDREMRTLFMTLDQLDRASITAQRKLTIPFVKEILKL [L9A;P10A]
effect of a mutation on the interaction (dpo3b_ecoli dnaN, P0A988 [1]): decreasing interaction | effect of a mutation on the interaction (dpo3b_ecoli dnaN, P0A988 [2]): disrupting interaction

— IntAct's records for PubMed 15150238
